Assay results: patent US20050095231A1

Biological target: artificial receptor (AR) on 293/6H cells: anti-5His single chain antibody fused with the transmembrane domain of the PDGF receptor
Test: cell-based or functional assay

## fiber-fibritin-6His chimera (FF/6H), as carried by Ad5LucFF/6H virions
  Ad5LucFF/6H-expressed luciferase activities in 293/6H cells expressing AR compared to parental 293 cells (orders of magnitude): 2
